Data on 1 substance can be found in paper PMC6726447.

In the experiment the target is HAdV-D26 fiber knob protein (human adenovirus type 26 (HAdV-D26)). Put plainly: crystal structure; HAdV-D26K crystals (PACT Premier B01 and B04, pH 4.0 and pH 8.0) soaked in 10 mM Neu5Ac; cubic space group, biological trimer assembled from it.

Regarding “HAdV-D26 fiber knob protein (domain or fragment)”, the stoichiometry N – broadly, the number of molecules, sites or subunits per partner or assembly – is 3.
